Earlier results on 2 molecules are cited in patent US6610516B1, “Cell culture process” (Genentech, Inc., priority 1999, dated 2003).

Where a chain is given by its changes, count along the chain named. Names may count otherwise.

Series [1] has as its system fibrin. As to conditions: Keyt et al. 1994.

B1: N117Q: t-PA variant wherein asparagine at position 117 of wild-type human t-PA was substituted with glutamine (protein, UniProt P00750 36-562, looked up, variant N117Q)
Tissue-type plasminogen …: SYQVICRDEKTQMIYQQHQSWLRPVLRSNRVEYCWCNSGRAQCHSVPVKSCSEPRCFNGGTCQQALYFSDFVCQCPEGFAGKCCEIDTRATCYEDQGISYRGTWSTAESGAECTNWQSSALAQKPYSGRRPDAIRLGLGNHNYCRNPDRDSKPWCYVFKAGKYSSEFCSTPACSEGNSDCYFGNGSAYRGTHSLTESGASCLPWNSMILIGKVYTAQNPSAQALGLGKHNYCRNPDGDAKPWCHVLKNRRLTWEYCDVPSCSTCGLRQYSQPQFRIKGGLFADIASHPWQAAIFAKHRRSPGERFLCGGILISSCWILSAAHCFQERFPPHHLTVILGRTYRVVPGEEEQKFEVEKYIVHKEFDDDTYDNDIALLQLKSDSSRCAQESSVVRTVCLPPADLQLPDWTECELSGYGKHEALSPFYSERLKEAHVRLYPSSRCTSQHLLNRTVTDNMLCAGDTRSGGPQANLHDACQGDSGGPLVCLNDGRMTLVGIISWGLGCGQKDVPGVYTKVTNYLDWIRDNMRP
On to B1, for which the “Clearance rate versus wild-type human t-PA” value (Hotchkiss et al., Lau et al.) was “about two-fold slower clearance rate”.

B2: TNK t-PA: t-PA variant: glycosylation site added at position 103, removed at 117, positions 296-299 replaced by AAAA (protein, UniProt P00750 36-562, looked up, variant T103N N117Q K296A H297A R298A R299A)
Tissue-type plasminogen …: B1 Tissue-type plasminogen … with T103N, K296A, H297A, R298A, R299A
On to B2, for which the “Circulatory half-life versus wild-type human t-PA” value (Keyt et al. 1994) is given as “increased circulatory half-life”. For the same molecule, the “Fibrin specificity versus wild-type human t-PA” value in series [1] is reported as “markedly better fibrin specificity”.
